# Reference: patent US20250188154A1
# Columns and labels:
# [1] = molecular target: SARS-CoV-2 Spike-2P stabilized S ectodomain trimer (SARS-CoV-2) (UniProt P0DTC2); experiment: SPR
# SARS-CoV-2 spike-HexaPro = experiment: SPR
# rhFcγRI/CD64 (human) = rhFcγRI/CD64 (human) (UniProt P12314); experiment: SPR, DH1042 captured on CM5, receptor titrated
# rhFcγRIIIA/CD16a (human) = rhFcγRIIIA/CD16a (human) (UniProt P08637); experiment: SPR, DH1042 captured on CM5, receptor titrated
# [2] = molecular target: Cent B, centromere B (human) (UniProt P07199); experiment: AtheNA Luminex, mAb at 25 (mg/mL [sic]); <100 negative
# Sequence of UniProt P07199 (P07199 2-599): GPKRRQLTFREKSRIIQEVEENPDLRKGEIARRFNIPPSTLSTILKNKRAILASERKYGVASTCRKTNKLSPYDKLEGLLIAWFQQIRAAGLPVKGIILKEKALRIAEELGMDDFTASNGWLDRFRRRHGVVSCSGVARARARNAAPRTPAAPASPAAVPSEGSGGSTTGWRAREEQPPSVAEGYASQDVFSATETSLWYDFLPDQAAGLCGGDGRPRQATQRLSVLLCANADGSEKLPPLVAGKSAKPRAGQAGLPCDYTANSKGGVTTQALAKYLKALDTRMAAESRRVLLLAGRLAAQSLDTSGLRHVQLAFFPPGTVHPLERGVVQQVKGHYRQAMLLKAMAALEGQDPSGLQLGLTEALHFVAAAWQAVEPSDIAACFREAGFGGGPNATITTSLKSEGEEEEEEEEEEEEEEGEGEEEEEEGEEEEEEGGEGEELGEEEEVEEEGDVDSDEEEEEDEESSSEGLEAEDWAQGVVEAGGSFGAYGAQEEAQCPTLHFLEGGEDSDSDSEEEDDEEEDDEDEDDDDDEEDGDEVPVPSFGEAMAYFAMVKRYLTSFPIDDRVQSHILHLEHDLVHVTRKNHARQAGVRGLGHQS
# Histone (human) [3] = experiment: as above
# Jo 1 (human) [4] = molecular target: Jo 1 (human) (UniProt P12081); experiment: as above
# Sequence of UniProt P12081 (P12081 2-509): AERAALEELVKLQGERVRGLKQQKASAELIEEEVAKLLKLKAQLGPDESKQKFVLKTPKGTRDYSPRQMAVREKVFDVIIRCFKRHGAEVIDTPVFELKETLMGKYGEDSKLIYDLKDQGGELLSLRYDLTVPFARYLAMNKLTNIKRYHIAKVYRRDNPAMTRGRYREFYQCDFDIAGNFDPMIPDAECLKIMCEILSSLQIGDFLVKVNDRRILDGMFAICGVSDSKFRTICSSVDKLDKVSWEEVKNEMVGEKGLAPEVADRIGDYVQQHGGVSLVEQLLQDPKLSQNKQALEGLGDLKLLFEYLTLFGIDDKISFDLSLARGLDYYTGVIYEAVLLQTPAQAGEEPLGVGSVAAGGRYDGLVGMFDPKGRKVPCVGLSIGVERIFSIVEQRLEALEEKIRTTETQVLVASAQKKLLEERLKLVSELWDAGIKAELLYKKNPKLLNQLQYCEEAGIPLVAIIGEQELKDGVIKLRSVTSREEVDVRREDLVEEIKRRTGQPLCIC
# [5] = molecular target: RNP, ribonucleoprotein (human) (UniProt Q96LT9); experiment: as above
# Sequence of UniProt Q96LT9 (Q96LT9 whole entry): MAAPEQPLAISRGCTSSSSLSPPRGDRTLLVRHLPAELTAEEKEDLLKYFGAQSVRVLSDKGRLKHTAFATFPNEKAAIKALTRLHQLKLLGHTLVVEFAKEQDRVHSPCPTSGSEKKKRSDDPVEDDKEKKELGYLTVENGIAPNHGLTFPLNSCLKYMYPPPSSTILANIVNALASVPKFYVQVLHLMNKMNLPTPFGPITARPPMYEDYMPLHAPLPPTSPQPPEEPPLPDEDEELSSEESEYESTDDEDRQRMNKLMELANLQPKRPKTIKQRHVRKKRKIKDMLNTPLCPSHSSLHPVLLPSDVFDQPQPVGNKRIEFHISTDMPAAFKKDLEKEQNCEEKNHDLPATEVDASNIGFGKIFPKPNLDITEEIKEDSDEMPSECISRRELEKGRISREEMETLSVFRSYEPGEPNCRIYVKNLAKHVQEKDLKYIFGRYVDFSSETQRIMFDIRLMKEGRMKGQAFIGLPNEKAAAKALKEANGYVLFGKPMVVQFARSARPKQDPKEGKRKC
# [6] = molecular target: SSA, Sjogren's syndrome antigen A (human); experiment: as above
# [7] = molecular target: SSB, Sjogren's syndrome antigen B (human) (UniProt P05455); experiment: as above
# Sequence of UniProt P05455 (P05455 whole entry): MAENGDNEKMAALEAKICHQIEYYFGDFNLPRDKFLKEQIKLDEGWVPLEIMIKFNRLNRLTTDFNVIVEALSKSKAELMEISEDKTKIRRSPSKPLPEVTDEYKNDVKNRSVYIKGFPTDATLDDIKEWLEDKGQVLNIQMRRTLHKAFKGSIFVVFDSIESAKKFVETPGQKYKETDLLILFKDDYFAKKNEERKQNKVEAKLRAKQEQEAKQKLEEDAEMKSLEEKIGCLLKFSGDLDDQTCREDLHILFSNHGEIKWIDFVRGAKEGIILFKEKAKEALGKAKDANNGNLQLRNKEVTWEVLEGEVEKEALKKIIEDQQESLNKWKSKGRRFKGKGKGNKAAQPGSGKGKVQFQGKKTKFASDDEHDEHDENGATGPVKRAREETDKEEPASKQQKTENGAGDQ
# [8] = molecular target: Scl 70, scleroderma 70 (human) (UniProt P11387); experiment: as above
# Sequence of UniProt P11387 (P11387 2-765): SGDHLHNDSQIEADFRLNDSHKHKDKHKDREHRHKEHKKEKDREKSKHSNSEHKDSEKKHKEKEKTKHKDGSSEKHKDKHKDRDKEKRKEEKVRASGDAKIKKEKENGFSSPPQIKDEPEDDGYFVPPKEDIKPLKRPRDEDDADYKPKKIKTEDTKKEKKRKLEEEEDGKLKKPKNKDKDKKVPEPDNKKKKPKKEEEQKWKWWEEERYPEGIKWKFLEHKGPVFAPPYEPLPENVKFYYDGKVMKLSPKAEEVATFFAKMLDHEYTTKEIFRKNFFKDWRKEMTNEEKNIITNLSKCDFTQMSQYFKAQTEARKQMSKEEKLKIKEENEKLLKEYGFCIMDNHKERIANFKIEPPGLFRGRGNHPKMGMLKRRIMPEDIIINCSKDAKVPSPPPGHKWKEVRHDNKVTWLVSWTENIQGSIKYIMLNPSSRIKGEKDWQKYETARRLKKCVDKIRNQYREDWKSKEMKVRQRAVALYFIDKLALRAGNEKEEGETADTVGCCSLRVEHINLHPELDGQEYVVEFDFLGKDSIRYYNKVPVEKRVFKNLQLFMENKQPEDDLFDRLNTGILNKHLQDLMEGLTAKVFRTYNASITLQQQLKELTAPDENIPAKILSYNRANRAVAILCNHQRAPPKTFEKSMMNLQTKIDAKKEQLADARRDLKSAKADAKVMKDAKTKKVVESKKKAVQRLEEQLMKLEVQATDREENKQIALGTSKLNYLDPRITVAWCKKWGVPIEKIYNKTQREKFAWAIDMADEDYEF
# [9] = molecular target: Sm, small nuclear riboproteins (human); experiment: as above
# [10] = molecular target: Cent B, centromere B (human) (UniProt P07199); experiment: AtheNA Luminex, mAb at 50 (mg/mL [sic]); <100 negative
# Histone (human) [11] = experiment: as above
# Jo 1 (human) [12] = molecular target: Jo 1 (human) (UniProt P12081); experiment: as above
# [13] = molecular target: RNP, ribonucleoprotein (human) (UniProt Q96LT9); experiment: as above
# [14] = molecular target: SSA, Sjogren's syndrome antigen A (human); experiment: as above
# [15] = molecular target: SSB, Sjogren's syndrome antigen B (human) (UniProt P05455); experiment: as above
# [16] = molecular target: Scl 70, scleroderma 70 (human) (UniProt P11387); experiment: as above
# [17] = molecular target: Sm, small nuclear riboproteins (human); experiment: as above
# [18] = molecular target: Cent B, centromere B (human) (UniProt P07199); experiment: AtheNA Luminex, mAb at 12.5 (mg/mL [sic]); <100 negative
# Histone (human) [19] = experiment: as above
# Jo 1 (human) [20] = molecular target: Jo 1 (human) (UniProt P12081); experiment: as above
# [21] = molecular target: RNP, ribonucleoprotein (human) (UniProt Q96LT9); experiment: as above
# [22] = molecular target: SSA, Sjogren's syndrome antigen A (human); experiment: as above
# [23] = molecular target: SSB, Sjogren's syndrome antigen B (human) (UniProt P05455); experiment: as above
# [24] = molecular target: Scl 70, scleroderma 70 (human) (UniProt P11387); experiment: as above
# [25] = molecular target: Sm, small nuclear riboproteins (human); experiment: as above
# [26] = molecular target: Cent B, centromere B (human) (UniProt P07199); experiment: AtheNA Luminex, mAb at 6.25 (mg/mL [sic]); <100 negative
# Histone (human) [27] = experiment: as above
# Jo 1 (human) [28] = molecular target: Jo 1 (human) (UniProt P12081); experiment: as above
# [29] = molecular target: RNP, ribonucleoprotein (human) (UniProt Q96LT9); experiment: as above
# [30] = molecular target: SSA, Sjogren's syndrome antigen A (human); experiment: as above
# [31] = molecular target: SSB, Sjogren's syndrome antigen B (human) (UniProt P05455); experiment: as above
# [32] = molecular target: Scl 70, scleroderma 70 (human) (UniProt P11387); experiment: as above
# [33] = molecular target: Sm, small nuclear riboproteins (human); experiment: as above
# [34] = molecular target: SARS-CoV live virus spike (SARS-CoV) (UniProt P59594); experiment: cell-based or functional assay
# [35] = molecular target: bat CoV RsSHC014 live virus spike (bat coronavirus RsSHC014); experiment: cell-based or functional assay
# [36] = molecular target: bat CoV WIV-1 live virus spike (bat coronavirus WIV-1); experiment: cell-based or functional assay
# Sequence of UniProt P12314 (P12314 16-288 limits assumed): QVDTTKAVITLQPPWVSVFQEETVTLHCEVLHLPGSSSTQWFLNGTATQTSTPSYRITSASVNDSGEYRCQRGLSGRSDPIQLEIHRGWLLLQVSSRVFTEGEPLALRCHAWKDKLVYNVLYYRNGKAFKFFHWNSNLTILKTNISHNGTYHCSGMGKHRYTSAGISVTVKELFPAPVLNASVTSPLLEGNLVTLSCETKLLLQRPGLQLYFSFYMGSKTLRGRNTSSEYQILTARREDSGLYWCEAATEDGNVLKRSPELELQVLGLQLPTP
# Sequence of UniProt P08637 (P08637 17-208 limits assumed): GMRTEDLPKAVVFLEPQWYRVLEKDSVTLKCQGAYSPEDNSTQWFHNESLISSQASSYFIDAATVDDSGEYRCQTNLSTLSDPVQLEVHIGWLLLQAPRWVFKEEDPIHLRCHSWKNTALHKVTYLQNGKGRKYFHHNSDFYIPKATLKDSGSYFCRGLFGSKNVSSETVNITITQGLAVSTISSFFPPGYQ
substance,measurement,setting,value
DH1042,Kd,[1],0.6 nM
same,Kd,SARS-CoV-2 spike-HexaPro,0.8 nM
DH1042 (antibody),Kd,rhFcγRI/CD64 (human),414000 nM
same,Kd,rhFcγRIIIA/CD16a (human),406 nM
same,AtheNA value,[2],26
same,AtheNA value,Histone (human) [3],6
same,AtheNA value,Jo 1 (human) [4],4
same,AtheNA value,[5],4
same,AtheNA value,[6],2
same,AtheNA value,[7],5
same,AtheNA value,[8],2
same,AtheNA value,[9],2
same,AtheNA value,[10],56
same,AtheNA value,Histone (human) [11],9
same,AtheNA value,Jo 1 (human) [12],2
same,AtheNA value,[13],6
same,AtheNA value,[14],2
same,AtheNA value,[15],4
same,AtheNA value,[16],1
same,AtheNA value,[17],3
same,AtheNA value,[18],12
same,AtheNA value,Histone (human) [19],3
same,AtheNA value,Jo 1 (human) [20],1
same,AtheNA value,[21],0
same,AtheNA value,[22],3
same,AtheNA value,[23],2
same,AtheNA value,[24],0
same,AtheNA value,[25],1
same,AtheNA value,[26],6
same,AtheNA value,Histone (human) [27],2
same,AtheNA value,Jo 1 (human) [28],2
same,AtheNA value,[29],1
same,AtheNA value,[30],1
same,AtheNA value,[31],3
same,AtheNA value,[32],1
same,AtheNA value,[33],3
DH1047,Kd,[1],< 0.1 nM
same,Kd,SARS-CoV-2 spike-HexaPro,0.08 nM
DH1047 (antibody),live virus neutralization IC50,[34],0.028 µg/mL
same,live virus neutralization IC50,[35],0.2 µg/mL
same,live virus neutralization IC50,[36],0.191 µg/mL
